The values below come from paper doi:10.1101/660712 (bioRxiv, 2019).

The experiment concerns the target His-tagged CP47 (PSII core antenna protein CP47) (Synechocystis sp. PCC 6803, UniProt P05429 1-507). Put plainly: AUC.

His-tagged CP47 (PSII core antenna protein CP47), sequence (P05429 whole entry): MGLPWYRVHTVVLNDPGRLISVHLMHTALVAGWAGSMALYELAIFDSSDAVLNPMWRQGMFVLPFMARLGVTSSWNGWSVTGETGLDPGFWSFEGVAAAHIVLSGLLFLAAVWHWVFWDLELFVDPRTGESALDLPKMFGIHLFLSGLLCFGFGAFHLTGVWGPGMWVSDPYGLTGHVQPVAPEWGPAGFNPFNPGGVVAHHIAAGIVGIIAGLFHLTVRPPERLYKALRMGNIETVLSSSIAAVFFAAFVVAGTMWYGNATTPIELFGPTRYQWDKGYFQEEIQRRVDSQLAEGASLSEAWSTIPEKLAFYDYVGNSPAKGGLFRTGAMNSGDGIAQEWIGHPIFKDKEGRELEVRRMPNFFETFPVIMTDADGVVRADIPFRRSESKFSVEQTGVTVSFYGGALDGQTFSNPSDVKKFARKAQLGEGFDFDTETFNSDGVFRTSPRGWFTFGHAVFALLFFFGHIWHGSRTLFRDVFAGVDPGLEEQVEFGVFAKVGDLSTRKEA

B1: CP43 (PSII core antenna protein) (natural protein)
chain: not shown
A word on the stoichiometry N: it is a count of units in the complex or per binding partner. Consider B1, for which the “stoichiometry N” value was about 1.
